B1: HER2/neu peptide, position 273, 10 amino acids (peptide)
peptide: TYNTDTFESM
B2: HER2/neu peptide, position 951, 9 amino acids (peptide)
peptide: VYMIMVKCW
B3: HER2/neu peptide, position 772, 10 amino acids (peptide)
peptide: YVMAGVGSPY
B4: HER2/neu peptide, position 951, 10 amino acids (peptide)
peptide: VYMIMVKCWM
B5: HER2/neu peptide, position 959, 11 amino acids (peptide)
peptide: WMIDSECRPRF
B6: HER2/neu peptide, position 399, 8 amino acids (peptide)
peptide: VFETLEEI
B7: HER2/neu peptide, position 905, 11 amino acids (peptide)
peptide: VWSYGVTVWEL
B8: HER2/neu peptide, position 424, 8 amino acids (peptide)
peptide: VFQNLQVI
B9: HER2/neu peptide, position 951, 11 amino acids (peptide)
peptide: VYMIMVKCWMI
B10: HER2/neu peptide, position 952, 8 amino acids (peptide)
peptide: YMIMVKCW
B11: HER2/neu peptide, position 63, 11 amino acids (peptide)
peptide: TYLPTNASLSF
B12: HER2/neu peptide, position 888, 8 amino acids (peptide)
peptide: WMALESIL
B13: HER2/neu peptide, position 905, 9 amino acids (peptide)
peptide: VWSYGVTVW
B14: HER2/neu peptide, position 887, 9 amino acids (peptide)
peptide: KWMALESIL
B15: HER2/neu peptide, position 684, 8 amino acids (peptide)
peptide: KYTMRRLL
B16: HER2/neu peptide, position 887, 8 amino acids (peptide)
peptide: KWMALESI
B17: HER2/neu 424-431 (peptide)
peptide: VFQNLQVI
B18: HER2/neu 887-895 (peptide)
peptide: KWMALESIL
B19: HER2/neu 978-986 (peptide)
peptide: RMARDPQRF
B20: HER2/neu 410-419 (peptide)
peptide: LYISAWPDSL
B21: HER2/neu 197-205 (peptide)
peptide: PMCKGSRCW
B22: HER2/neu 800-807 (peptide)
peptide: LMPYGCLL
B23: HER2/neu 968-976 (peptide)
peptide: RFRELVSEF
B24: HER2/neu 907-915 (peptide)
peptide: SYGVTVWEL
B25: HER2/neu 451-459 (peptide)
peptide: SWLGLRSLR
B26: HER2/neu 780-788 (peptide)
peptide: PYVSRLLGI
B27: HER2/neu 898-906 (peptide)
peptide: RFTHQSDVW
B28: HER2/neu 281-291 (peptide)
peptide: SMPNPEGRYTF
B29: HER2/neu 485-493 (peptide)
peptide: LFRNPHQAL
B30: HER2/neu 922-931 (peptide)
peptide: PYDGIPAREI
B31: HER2/neu 985-994 (peptide)
peptide: RFVVIQNEDL
B32: HER2/neu 905-915 (peptide)
peptide: VWSYGVTVWEL
B33: HER2/neu 1111-1120 (peptide)
peptide: RYSEDPTVPL
B34: HER2/neu 686-696 (peptide)
peptide: TMRRLLQETEL
B35: HER2/neu 684-691 (peptide)
peptide: KYTMRRLL
B36: HER2/neu 485-494 (peptide)
peptide: LFRNPHQALL
B37: HER2/neu 905-913 (peptide)
peptide: VWSYGVTVW
B38: HER2/neu 8-15 (peptide)
peptide: RWGLLLAL
B39: HER2/neu 399-406 (peptide)
peptide: VFETLEEI
B40: HER2/neu 107-117 (peptide)
peptide: LFEDNYALAVL
B41: HER2/neu 887-894 (peptide)
peptide: KWMALESI
B42: HER2/neu 451-461 (peptide)
peptide: SWLGLRSLREL
B43: HER2/neu 107-114 (peptide)
peptide: LFEDNYAL
B44: HER2/neu 63-71 (peptide)
peptide: TYLPTNASL
B45: HER2/neu 609-616 (peptide)
peptide: SYMPIWKF
B46: HER2/neu 63-73 (peptide)
peptide: TYLPTNASLSF
B47: HER2/neu 917-926 (peptide)
peptide: TFGAKPYDGI
B48: HER2/neu 8-16 (peptide)
peptide: RWGLLLALL
B49: HER2/neu 834-841 (peptide)
peptide: SYLEDVRL
B50: HER2/neu peptide, position 686, 11 amino acids (peptide)
peptide: TMRRLLQETEL
B51: HER2/neu peptide, position 898, 9 amino acids (peptide)
peptide: RFTHQSDVW
B52: HER2/neu peptide, position 1111, 10 amino acids (peptide)
peptide: RYSEDPTVPL
B53: HER2/neu peptide, position 281, 9 amino acids (peptide)
peptide: SMPNPEGRY
B54: HER2/neu peptide, position 8, 8 amino acids (peptide)
peptide: RWGLLLAL
B55: HER2/neu peptide, position 907, 10 amino acids (peptide)
peptide: SYGVTVWELM
B56: HER2/neu peptide, position 834, 8 amino acids (peptide)
peptide: SYLEDVRL
B57: HER2/neu peptide, position 8, 9 amino acids (peptide)
peptide: RWGLLLALL
B58: HER2/neu peptide, position 451, 11 amino acids (peptide)
peptide: SWLGLRSLREL
B59: HER2/neu peptide, position 968, 9 amino acids (peptide)
peptide: RFRELVSEF
B60: HER2/neu peptide, position 985, 10 amino acids (peptide)
peptide: RFVVIQNEDL
B61: HER2/neu peptide, position 63, 9 amino acids (peptide)
peptide: TYLPTNASL
B62: HER2/neu peptide, position 609, 8 amino acids (peptide)
peptide: SYMPIWKF
B63: HER2/neu peptide, position 917, 10 amino acids (peptide)
peptide: TFGAKPYDGI
B64: HER2/neu peptide, position 451, 8 amino acids (peptide)
peptide: SWLGLRSL
B65: HER2/neu peptide, position 907, 9 amino acids (peptide)
peptide: SYGVTVWEL
B66: HER2/neu peptide, position 978, 9 amino acids (peptide)
peptide: RMARDPQRF
B67: HER2/neu peptide, position 281, 11 amino acids (peptide)
peptide: SMPNPEGRYTF

Target: HLA-A*2401 (purified HLA class I molecule) (human)
Experiment: competition with 125I-labelled probe peptide for purified HLA, gel filtration
Details: not given

Question: How did the relative binding ratio (IC50 of standard peptide / IC50 of test peptide) turn out when B1 was run?
Answer: 0.0074

Question: How did the relative binding ratio (IC50 of standard peptide / IC50 of test peptide) turn out when B2 was run?
Answer: 0.16

Question: For B3, which relative binding ratio (IC50 of standard peptide / IC50 of test peptide) is on record?
Answer: 0.0001

Question: B4 was tested. Which relative binding ratio (IC50 of standard peptide / IC50 of test peptide) did it give?
Answer: 0.022

Question: B5 was tested. Which relative binding ratio (IC50 of standard peptide / IC50 of test peptide) did it give?
Answer: 0.0011

Question: Which relative binding ratio (IC50 of standard peptide / IC50 of test peptide) does the source give for B6 here?
Answer: -0.0003

Question: How did the relative binding ratio (IC50 of standard peptide / IC50 of test peptide) turn out when B7 was run?
Answer: 0.092

Question: Which relative binding ratio (IC50 of standard peptide / IC50 of test peptide) does the source give for B8 here?
Answer: -0.0003

Question: For B9, which relative binding ratio (IC50 of standard peptide / IC50 of test peptide) is on record?
Answer: 1.8

Question: B10 was tested. Which relative binding ratio (IC50 of standard peptide / IC50 of test peptide) did it give?
Answer: 0.0009

Question: With B11 as the binder, how does the relative binding ratio (IC50 of standard peptide / IC50 of test peptide) read?
Answer: 8.9

Question: How did the relative binding ratio (IC50 of standard peptide / IC50 of test peptide) turn out when B12 was run?
Answer: -0.0003

Question: For B13, which relative binding ratio (IC50 of standard peptide / IC50 of test peptide) is on record?
Answer: 0.08

Same assay, conditions: scale: ratio

Question: With B2 as the binder, how does the relative binding ratio read?
Answer: 0.16

Question: B5 was tested. Which relative binding ratio did it give?
Answer: 0.0011

Question: For B9, which relative binding ratio is on record?
Answer: 1.8

Question: Which relative binding ratio does the source give for B10 here?
Answer: 0.0009

Question: For B12, which relative binding ratio is on record?
Answer: -0.0003

Target: HLA-A*2401 (human)
Experiment: competition with 125I-labelled standard peptide for purified HLA, gel filtration
Details: not given

Question: With B14 as the binder, how does the relative binding ratio (IC50 of standard peptide / IC50 of test peptide) (ratio to standard peptide) read?
Answer: 0.015

Question: B15 was tested. Which relative binding ratio (IC50 of standard peptide / IC50 of test peptide) (ratio to standard peptide) did it give?
Answer: 0.0024

Question: With B16 as the binder, how does the relative binding ratio (IC50 of standard peptide / IC50 of test peptide) (ratio to standard peptide) read?
Answer: 0.008

Target: HLA-A*2401 (human)
Experiment: inhibition of 125I probe peptide binding to purified HLA; IC50 standard/IC50 test
Details: not given

Question: With B17 as the binder, how does the relative binding ratio read?
Answer: -0.0003

Question: How did the relative binding ratio turn out when B18 was run?
Answer: 0.015

Question: B19 was tested. Which relative binding ratio did it give?
Answer: 0.0032

Question: How did the relative binding ratio turn out when B20 was run?
Answer: 0.084

Question: With B21 as the binder, how does the relative binding ratio read?
Answer: 0.0011

Question: With B22 as the binder, how does the relative binding ratio read?
Answer: 0.0076

Question: Which relative binding ratio does the source give for B23 here?
Answer: 0.018

Question: How did the relative binding ratio turn out when B24 was run?
Answer: 0.12

Question: How did the relative binding ratio turn out when B25 was run?
Answer: -0.0003

Question: For B26, which relative binding ratio is on record?
Answer: 0.17

Question: B27 was tested. Which relative binding ratio did it give?
Answer: 0.011

Question: Which relative binding ratio does the source give for B28 here?
Answer: 0.018

Question: For B29, which relative binding ratio is on record?
Answer: 0.0002

Question: With B30 as the binder, how does the relative binding ratio read?
Answer: 0.0005

Question: With B31 as the binder, how does the relative binding ratio read?
Answer: 0.0002

Question: Which relative binding ratio does the source give for B32 here?
Answer: 0.092

Question: How did the relative binding ratio turn out when B33 was run?
Answer: 0.012

Question: With B34 as the binder, how does the relative binding ratio read?
Answer: -0.0003

Question: How did the relative binding ratio turn out when B35 was run?
Answer: 0.0024

Question: B36 was tested. Which relative binding ratio did it give?
Answer: 0.0014

Question: Which relative binding ratio does the source give for B37 here?
Answer: 0.08

Question: With B38 as the binder, how does the relative binding ratio read?
Answer: 0.025

Question: With B39 as the binder, how does the relative binding ratio read?
Answer: -0.0003

Question: Which relative binding ratio does the source give for B40 here?
Answer: 0.0006

Question: How did the relative binding ratio turn out when B41 was run?
Answer: 0.008

Question: With B42 as the binder, how does the relative binding ratio read?
Answer: 0.0036

Question: Which relative binding ratio does the source give for B43 here?
Answer: 0.0006

Question: Which relative binding ratio does the source give for B44 here?
Answer: 0.038

Question: For B45, which relative binding ratio is on record?
Answer: 0.32

Question: For B46, which relative binding ratio is on record?
Answer: 8.9

Question: B47 was tested. Which relative binding ratio did it give?
Answer: 0.0002

Question: For B48, which relative binding ratio is on record?
Answer: 1.3

Question: Which relative binding ratio does the source give for B49 here?
Answer: 0.0059

Target: HLA-A*2401 (human)
Experiment: inhibition of 125I-labelled standard peptide binding to purified HLA, gel filtration
Details: not given

Question: For B50, which relative binding ratio (IC50 of standard peptide / IC50 of test peptide) is on record?
Answer: -0.0003

Question: For B51, which relative binding ratio (IC50 of standard peptide / IC50 of test peptide) is on record?
Answer: 0.011

Question: For B52, which relative binding ratio (IC50 of standard peptide / IC50 of test peptide) is on record?
Answer: 0.012

Question: With B53 as the binder, how does the relative binding ratio (IC50 of standard peptide / IC50 of test peptide) read?
Answer: 0.0001

Question: Which relative binding ratio (IC50 of standard peptide / IC50 of test peptide) does the source give for B54 here?
Answer: 0.025

Question: How did the relative binding ratio (IC50 of standard peptide / IC50 of test peptide) turn out when B55 was run?
Answer: 0.063

Question: With B56 as the binder, how does the relative binding ratio (IC50 of standard peptide / IC50 of test peptide) read?
Answer: 0.0059

Question: B57 was tested. Which relative binding ratio (IC50 of standard peptide / IC50 of test peptide) did it give?
Answer: 1.3

Question: B58 was tested. Which relative binding ratio (IC50 of standard peptide / IC50 of test peptide) did it give?
Answer: 0.0036

Question: For B59, which relative binding ratio (IC50 of standard peptide / IC50 of test peptide) is on record?
Answer: 0.018

Question: For B60, which relative binding ratio (IC50 of standard peptide / IC50 of test peptide) is on record?
Answer: 0.0002

Question: How did the relative binding ratio (IC50 of standard peptide / IC50 of test peptide) turn out when B61 was run?
Answer: 0.038

Question: With B62 as the binder, how does the relative binding ratio (IC50 of standard peptide / IC50 of test peptide) read?
Answer: 0.32

Question: With B63 as the binder, how does the relative binding ratio (IC50 of standard peptide / IC50 of test peptide) read?
Answer: 0.0002

Question: How did the relative binding ratio (IC50 of standard peptide / IC50 of test peptide) turn out when B64 was run?
Answer: -0.0003

Question: B65 was tested. Which relative binding ratio (IC50 of standard peptide / IC50 of test peptide) did it give?
Answer: 0.12

Question: With B66 as the binder, how does the relative binding ratio (IC50 of standard peptide / IC50 of test peptide) read?
Answer: 0.0032

Question: For B67, which relative binding ratio (IC50 of standard peptide / IC50 of test peptide) is on record?
Answer: 0.018
